Laboratory results taken from US20220296726A1 (Bicycle, published 2022).
*1 amine or outer side, *2 acyl side, *3 side chain or, on linkers, in order; H or OH if unused. Bridges are numbered along the chain shown (N, C = ends). Where no end group is shown, it is not given here. [ ]: non-standard residue; d: D form. The star is where a group is joined. TATA = O=C(CC[*:1])N1CN(C(=O)CC[*:2])CN(C(=O)CC[*:3])C1; Pent4ynoyl = C#CCCC(=O)*; Aib = CC(C)(N)C(=O)O

T1: Human TREM2 extracellular domain (ECD), residues 19-131, C-terminally biotinylated, deglycosylated (human, UniProt Q9NZC2 19-131, C-terminally biotinylated; deglycosylated)
T1 construct: range 19-131; loaded on Superstreptavidin biosensors; also called triggering receptor expressed on myeloid cells 2; Human BLI (deglycosylated)
T1 sequence (looked up): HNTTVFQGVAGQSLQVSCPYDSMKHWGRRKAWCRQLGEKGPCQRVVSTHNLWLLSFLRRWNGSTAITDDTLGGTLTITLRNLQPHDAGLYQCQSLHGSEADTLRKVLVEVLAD


biological target: T1, Human TREM2 extracellular domain (ECD), …; assay: BLI steady state, deglycosylated human TREM2 ECD on sensor
Experimental: Bio-layer interferometry was performed on an Octet RED384® system (Sartorius) at 25° C. in a buffer containing 50 mM HEPES (pH 7.5), 150 mM NaCl and 0.1% Tween. […] Reference wells containing no bicycle peptides and reference sensors loaded with an unrelated protein (His-tagged MLLT3a) were subjected to the same assay protocol and double reference subtraction was used for processing to account for non-specific binding. Traces were analysed using Octet Software (Version 11.0). Association and dissociation curves were globally fit and the response at equilibrium (Req) plotted against concentration to obtain steady-state KD values.

Binder	Kd [nM]
ACSEYCFWPFYSCA (linker 2-6-13 via TATA) [BCY17669]	1200
ACSEYCFWPFYPCA (linker 2-6-13 via TATA) [BCY17670]	1700
ACSEYCFWPFWNCA (Ci, Cii, Ciii on TATA scaffold) [BCY17671]	900
ACSEYCFWPFFNCA (Ci, Cii, Ciii on TATA scaffold) [BCY17672]	2000
ACAEYCFWPFYHCA-NH2 (linker 2-6-13 via TATA; N-terminus assumed; SMILES C[C@H](N)C(=O)N[C@H]1CSCCC(=O)N2CN3CN(C2)C(=O)CCSC[C@H](NC(=O)[C@H](Cc2ccc(O)cc2)NC(=O)[C@H](CCC(=O)O)NC(=O)[C@H](C)NC1=O)C(=O)N[C@@H](Cc1ccccc1)C(=O)N[C@@H](Cc1c[nH]c2ccccc12)C(=O)N1CCC[C@H]1C(=O)N[C@@H](Cc1ccccc1)C(=O)N[C@@H](Cc1ccc(O)cc1)C(=O)N[C@@H](Cc1c[nH]cn1)C(=O)N[C@H](C(=O)N[C@@H](C)C(N)=O)CSCCC3=O) [BCY18220]	2000
ACSAYCFWPFYHCA (linker 2-6-13 via TATA) [BCY18221]	1800
ACSEYCFWAFYHCA (linker 2-6-13 via TATA) [BCY18225]	14000
ACSEYCFWPFAHCA (linker 2-6-13 via TATA) [BCY18227]	3100
ACSEYCFWPFYACA (linker 2-6-13 via TATA) [BCY18228]	2600
ACSEYCFWPFYLCA (linker 2-6-13 via TATA) [BCY19777]	~1200
Ac-CSEYCFWPFYHC-NH2 (linker 1-5-12 via TATA) [BCY18217]	900
Ac-CSEYCFWPLYHC (linker 1-5-12 via TATA) [BCY20070]	1660
Ac-CSEYCFWPFYPC (linker 1-5-12 via TATA) [BCY20082]	1930
Ac-CSEYCFWPFYNC-NH2 (linker 1-5-12 via TATA; SMILES CC(=O)N[C@H]1CSCCC(=O)N2CN3CN(C2)C(=O)CCSC[C@H](NC(=O)[C@H](Cc2ccc(O)cc2)NC(=O)[C@H](CCC(=O)O)NC(=O)[C@H](CO)NC1=O)C(=O)N[C@@H](Cc1ccccc1)C(=O)N[C@@H](Cc1c[nH]c2ccccc12)C(=O)N1CCC[C@H]1C(=O)N[C@@H](Cc1ccccc1)C(=O)N[C@@H](Cc1ccc(O)cc1)C(=O)N[C@@H](CC(N)=O)C(=O)N[C@H](C(N)=O)CSCCC3=O) [BCY20083]	1840
Ac-CSEYCFWPFYSC (linker 1-5-12 via TATA) [BCY20084]	1650
Ac-C[dA]EYCFWPFYHC (linker 1-5-12 via TATA) [BCY20086]	18000
Ac-CS[dA]YCFWPFYHC (linker 1-5-12 via TATA) [BCY20087]	18000
Ac-CSEYCFWPF[dA]HC (linker 1-5-12 via TATA) [BCY20093]	4680
Ac-CSEYCFWPFY[dA]C (linker 1-5-12 via TATA) [BCY20094]	2530
Ac-CDEYCFWPFYHC (linker 1-5-12 via TATA) [BCY20563]	3170

Binder	Kd [nM]
Ac-CSEYCYWPFYHC (linker 1-5-12 via TATA) [BCY20566]	2140
Ac-CSEYCFWPYYHC (linker 1-5-12 via TATA) [BCY20568]	2280
Ac-CSEYCFWPFDHC (linker 1-5-12 via TATA) [BCY20570]	1870
Ac-CSEYCFWPFEHC (linker 1-5-12 via TATA) [BCY20571]	2210
Ac-CSEYCFWPFYQC (linker 1-5-12 via TATA) [BCY20572]	1060
Ac-CSEYCFWPFYDC (linker 1-5-12 via TATA) [BCY20573]	1960
Ac-CSEYCFWPFYEC (linker 1-5-12 via TATA) [BCY20574]	1740
Ac-CSEYCFWPFYFC (linker 1-5-12 via TATA) [BCY20576]	1350
Ac-CSEYCFW[Aib]FYHC (linker 1-5-12 via TATA) [BCY19670]	30000
CSXYCFWPFYHC (N-terminal acetyl (Ac); CiS[K(PYA)]YCiiFWPFYHCiii; Ci, Cii, Ciii on TATA scaffold) [BCY20096]	2500
Ac-CSEYCFWPK(Pent4ynoyl)YHC (linker 1-5-12 via TATA) [BCY20101]	18600
CSEYCFWPFXHC (N-terminal acetyl (Ac); CiSEYCiiFWPF[K(PYA)]HCiii; Ci, Cii, Ciii on TATA scaffold) [BCY20102]	1460
Ac-CSEYCFWPFYHCK(Pent4ynoyl) (linker 1-5-12 via TATA) [BCY20085]	1620
Ac-CSEYCFWPFQYC (linker 1-5-12 via TATA) [BCY20220]	1300
Ac-CSYYCFWPFQYC (linker 1-5-12 via TATA) [BCY20221]	690
Ac-CSEYCFWPFFLC (linker 1-5-12 via TATA) [BCY20222]	1570
CSEYCXWPFYHC (N-terminal acetyl (Ac); CiSEYCii[4Pal]WPFYHCiii; Ci, Cii, Ciii on TATA scaffold) [BCY20567]	1020
CSEYCFWPXYHC (N-terminal acetyl (Ac); CiSEYCiiFWP[4Pal]YHCiii; Ci, Cii, Ciii on TATA scaffold) [BCY20569]	3800
CSEYCFWPFYXC (N-terminal acetyl (Ac); CiSEYCiiFWPFY[HArg]Ciii; Ci, Cii, Ciii on TATA scaffold) [BCY20575]	375
